Data as given in patent publication US9150655B2, “Anti-C-met antibody and methods of use thereof” (ACADEMIA SINICA, priority 2010, dated 2015).

Key:
[1] = target: T1, c-Met expressed on H1993 cells (Homo sapiens, UniProt P08581); assay: Competition ELISA: phage clones inhibit HGF binding to H1993 cells; conditions: phage-displayed scFv; HGF binding without competitors = 100%
T1 construct: H1993 is known to express a high level of c-Met; endogenous in cells; host or cells: H1993
Protocol: (§1) To test whether the three anti-c-Met scFvs could inhibit HGF binding to c-Met, the human lung cancer cell line H1993 was chosen to undergo competition ELISA (Lutterbach B et al. (2007) Cancer Res 67:2081-2088). […] HGF binding to H1993 cells without competitors was considered 100%. H1993 is known to express a high level of c-Met. When H1993 cells were incubated with HGF in the presence of the phage clones, the binding of HGF to H1993 cells was diminished by more than 90% by the anti-c-Met scFv PC1. PC20 inhibited more than 50% of HGF binding to c-Met (FIG. 2, panel A). The competitive inhibition of HGF by different concentrations of soluble scFvs was also tested. Normal mouse IgG (NMIgG) was used as a negative control. HGF binding to immobilized c-Met protein without competitors was considered 100%.

c-Met-Fc protein = target: T2, c-Met-Fc protein (Homo sapiens, UniProt P08581); assay: Phage ELISA for binding to c-Met-Fc protein; conditions: same phage titer
T2 construct: Fc; purchased R&D
Protocol: Selection of phages displaying specific anti-c-Met scFv was performed by protein G dynabeads (Invitrogen). c-Met-Fc recombinant protein (R&D) was incubated with protein G dynabeads at room temperature (RT) for 1 hr. The scFv library (2×10^9 members) was subtracted non-specific binding in protein G dynabeads and subsequently incubated with c-Met-Fc immobilized dynabeads for 1 hr at 4° C. Unbound phages were removed by washing 4 times with PBST. The phages that bound to c-Met-Fc were recovered by infection with E. coli TG1 cells at 37° C. for 30 min. Part of the infected cells were serial diluted to determine titer, and the others were rescued by M13KO7 helper phage (NEB). […]
To examine the specificity and binding affinity of the three phage clones, a comparative ELISA using the same phage titer was performed. […] The three clones were assessed for binding to cell-surface c-Met by flow cytometry and immunofluorescence assay using 293T cells ectopically expressing human c-Met. […] Soluble anti-c-Met scFvs were purified from periplasmic extract of phage-infected E-coli HB2151 by protein L agarose chromatography, and then assessed by coomassie blue staining representing purified anti-c-Met scFv proteins (S1, S20 and S21) localized in vicinity of 30 kDa corresponding to protein weight marker (upper panel of FIG. 8, panel B).

[2] = target: T3, 293T cells ectopically expressing human c-Met (Homo sapiens, UniProt P08581); assay: Phage binding to c-Met-overexpressing 293T cells (flow cytometry, immunofluorescence); type: cell-based; conditions: 293T overexpressing c-Met vs 293T; flow cytometry and immunofluorescence
T3 construct: The DNA encoding full-length c-Met was amplified by PCR; expressed in transfected cells; host or cells: 293T cells transfected with pEF-c-Met expression vector
Protocol: For immunofluorescence staining assay, 293T cells were grown on coverslips to 80% confluence. Transfection of the cells with pEF-c-Met expression vector was performed using Lipofectamin 2000 (Invitrogen) according to manufacturer's instructions. At 48 hrs post-transfection, the cells were incubated with the selected anti-c-Met phage or control phage, by 1×10^10 phage titer for 30 min at 4° C. After the cells were washed twice with PBS, they were fixed by 4% paraformaldehyde, permeabilized with 0.1% TritonX-100 and blocked with 3% BSA. […] The fluorescence images were captured by inverted fluorescence microscope (Axiovert 200M, Zeiss).
For flow cytometry analysis, 293T cells were grown to 80% confluence and transfected with pEF-c-Met expression vector as described above. […] Analysis was performed using FACSCantoll (BD) and emission fluorescence intensity was measured by FACSDiva software (BD) to quantitatively compare their binding affinities
To examine the specificity and binding affinity of the three phage clones, a comparative ELISA using the same phage titer was performed. […] The three clones were assessed for binding to cell-surface c-Met by flow cytometry and immunofluorescence assay using 293T cells ectopically expressing human c-Met. […]

c-Met932-Fc protein = target: T4, c-Met932-Fc protein (Homo sapiens, UniProt P08581); assay: Binding kinetics of anti-c-Met scFv by SPR (BIAcore)
T4 construct: DNA fragments encoding amino acid residues 1 to 932 and 1 to 567 of c-Met were amplified by PCR; made in house; host or cells: 293T cells, transient transfection, protein G purification from supernatant
Protocol: The affinity and kinetics of anti-c-Met scFv were measured by SRP in BIAcore X (GE healthcare). In BIAcore flowcell, 30 μg/ml of c-MetF932-Fc protein was coupled to EDC- and NHS-activated CM5 sensor chip followed by blocking with ethanolamine according to manufacturer's directions. Associated and dissociated phases were monitored for 3 and 5 min, respectively, under continuous flow of 30 μl/min using scFv concentrations ranging 5 to 200 nM. Regeneration was performed by injection of regenerate buffer (0.2 M NaCl, 10 mM glycine, pH 2.7). To determine binding constants, the sensorgrams were fit globally to a sample 1:1 interaction model using BIAevaluation software (GE healthcare).
Binding kinetic constants (Kon and Koff) and affinity of each soluble scFv for c-Met932-Fc protein were measured by Surface Plasmon Resonance (SPR).
Kon and Koff were measured by SRP in a BIAcore using purified scFvs, and the Kd was calculated by BIAevaluation software.

c-MetF932-Fc protein = target: T5, c-MetF932-Fc protein (Homo sapiens, UniProt P08581); assay: Competitive ELISA: soluble scFv inhibit HGF binding to immobilized c-Met protein; conditions: different concentrations of soluble scFv
T5 construct: DNA fragments encoding amino acid residues 1 to 932 and 1 to 567 of c-Met were amplified by PCR; made in house; host or cells: 293T cells, transient transfection, protein G purification from supernatant
Protocol: To monitor inhibition effect of scFv, we coated the c-MetF932-Fc protein on a 96-well plate and blocked nonspecific binder with 3% BSA in PBS. 1 nM human HGF (R&D) plus varying concentrations of anti-c-Met scFv or normal mouse IgG were applied to the wells. The amount of HGF bound to c-Met was determined using goat anti-human HGF (R&D), following incubation of HRP-labeled mouse anti-goat IgG (Jackson ImmunoResearch) and OPD substrate (Sigma) plus H2O2. The absorbance was measured with 490 nm using a microplate reader. Inhibition percentage was calculated by the following equation: [(the absorbance of HGF bound without competitor)−(the absorbance of HGF bound with competitor)]/(the absorbance of HGF bound without competitor)×100%.
as §1

c-Met567-Fc protein = target: T6, c-Met567-Fc protein (Homo sapiens, UniProt P08581); assay: Epitope ELISA on c-Met932-Fc and c-Met567-Fc; type: binding; conditions: immobilized recombinant proteins
T6 construct: DNA fragments encoding amino acid residues 1 to 932 and 1 to 567 of c-Met were amplified by PCR; made in house; host or cells: 293T cells, transient transfection, protein G purification from supernatant
Protocol: Therefore, binding epitopes of anti-c-Met scFvs localized within HGF binding domain of c-Met were investigated. The binding ability of anti-c-Met scFvs was examined for c-Met932-Fc protein including whole extracellular domain of c-Met, and c-Met567-Fc protein containing Sema and PSI domain, both of which have been defined as HGF binding regions (FIG. 2, panel C). The c-Met recombinant proteins were immobilized on titer wells, and incubated with anti-c-Met scFvs. Anti-c-Met polyclonal antibody and anti-E tag antibody was used as a positive and negative control, respectively. […] The binding intensity of S1 for c-Met932-Fc was similar to that for c-Met567-Fc.

[3] = purified scFv, c-MetF932-Fc on CM5 chip

T4 sequence (P08581 25-307): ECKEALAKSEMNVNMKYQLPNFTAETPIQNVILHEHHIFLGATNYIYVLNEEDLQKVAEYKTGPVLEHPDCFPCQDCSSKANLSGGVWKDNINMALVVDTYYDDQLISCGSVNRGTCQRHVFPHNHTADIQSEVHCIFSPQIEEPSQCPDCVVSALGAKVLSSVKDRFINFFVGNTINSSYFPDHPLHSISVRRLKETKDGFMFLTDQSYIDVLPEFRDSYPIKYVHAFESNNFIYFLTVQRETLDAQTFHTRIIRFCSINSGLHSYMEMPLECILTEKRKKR
T4 sequence (P08581 308-932): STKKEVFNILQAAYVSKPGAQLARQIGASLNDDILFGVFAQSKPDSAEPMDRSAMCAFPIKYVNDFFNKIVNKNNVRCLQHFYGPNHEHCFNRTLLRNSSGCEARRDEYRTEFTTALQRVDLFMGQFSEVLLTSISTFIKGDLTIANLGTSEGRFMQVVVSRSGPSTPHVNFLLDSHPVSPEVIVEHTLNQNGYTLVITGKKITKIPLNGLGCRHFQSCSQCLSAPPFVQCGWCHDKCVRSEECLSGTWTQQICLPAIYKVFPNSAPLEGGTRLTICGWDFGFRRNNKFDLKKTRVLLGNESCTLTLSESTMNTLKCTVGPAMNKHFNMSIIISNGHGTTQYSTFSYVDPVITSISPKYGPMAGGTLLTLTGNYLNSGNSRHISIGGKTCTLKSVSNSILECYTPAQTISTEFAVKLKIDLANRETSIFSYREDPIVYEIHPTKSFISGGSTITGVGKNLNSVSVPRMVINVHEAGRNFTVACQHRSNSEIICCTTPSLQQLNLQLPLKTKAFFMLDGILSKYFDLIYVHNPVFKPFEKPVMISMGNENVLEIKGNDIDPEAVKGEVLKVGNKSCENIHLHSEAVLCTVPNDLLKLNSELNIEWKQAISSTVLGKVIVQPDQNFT
T5 sequence (P08581 25-307 limits assumed): as the sequence (P08581 25-307) above
T5 sequence (P08581 308-932 limits assumed): as the sequence (P08581 308-932) above
T1 sequence (P08581 25-1390): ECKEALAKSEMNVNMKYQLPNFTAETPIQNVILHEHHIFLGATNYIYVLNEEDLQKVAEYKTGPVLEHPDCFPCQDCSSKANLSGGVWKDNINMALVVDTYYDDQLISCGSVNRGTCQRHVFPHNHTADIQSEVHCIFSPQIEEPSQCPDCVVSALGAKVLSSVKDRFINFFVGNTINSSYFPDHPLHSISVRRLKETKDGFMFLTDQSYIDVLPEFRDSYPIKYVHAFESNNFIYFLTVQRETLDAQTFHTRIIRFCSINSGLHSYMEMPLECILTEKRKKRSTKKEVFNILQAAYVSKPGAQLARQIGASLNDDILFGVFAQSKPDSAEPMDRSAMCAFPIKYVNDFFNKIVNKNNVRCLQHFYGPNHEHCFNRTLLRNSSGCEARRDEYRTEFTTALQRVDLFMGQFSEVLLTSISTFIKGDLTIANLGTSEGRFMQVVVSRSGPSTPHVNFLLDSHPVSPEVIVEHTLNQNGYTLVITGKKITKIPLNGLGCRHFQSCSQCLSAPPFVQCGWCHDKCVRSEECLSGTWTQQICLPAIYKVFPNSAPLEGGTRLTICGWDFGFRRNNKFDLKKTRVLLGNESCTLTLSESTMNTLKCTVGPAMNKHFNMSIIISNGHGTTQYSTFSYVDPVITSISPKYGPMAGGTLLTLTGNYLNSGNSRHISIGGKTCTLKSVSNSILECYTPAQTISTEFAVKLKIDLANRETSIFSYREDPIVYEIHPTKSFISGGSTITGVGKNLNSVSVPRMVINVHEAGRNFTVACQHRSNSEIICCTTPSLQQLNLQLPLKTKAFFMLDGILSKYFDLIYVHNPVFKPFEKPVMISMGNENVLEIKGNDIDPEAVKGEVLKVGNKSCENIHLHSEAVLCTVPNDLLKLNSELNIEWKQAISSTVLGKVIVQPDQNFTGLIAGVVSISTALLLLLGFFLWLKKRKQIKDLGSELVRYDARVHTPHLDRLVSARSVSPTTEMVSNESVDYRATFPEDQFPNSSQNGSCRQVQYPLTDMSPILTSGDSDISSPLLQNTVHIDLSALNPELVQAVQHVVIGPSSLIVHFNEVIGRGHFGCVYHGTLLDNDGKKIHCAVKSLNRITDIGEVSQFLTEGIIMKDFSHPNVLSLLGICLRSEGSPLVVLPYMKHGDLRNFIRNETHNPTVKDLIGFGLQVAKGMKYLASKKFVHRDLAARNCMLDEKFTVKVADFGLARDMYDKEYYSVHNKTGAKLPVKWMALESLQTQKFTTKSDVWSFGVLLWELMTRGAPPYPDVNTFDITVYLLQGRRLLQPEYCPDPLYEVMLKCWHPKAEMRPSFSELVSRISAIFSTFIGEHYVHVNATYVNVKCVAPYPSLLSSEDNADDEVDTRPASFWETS
T6 sequence (P08581 25-567): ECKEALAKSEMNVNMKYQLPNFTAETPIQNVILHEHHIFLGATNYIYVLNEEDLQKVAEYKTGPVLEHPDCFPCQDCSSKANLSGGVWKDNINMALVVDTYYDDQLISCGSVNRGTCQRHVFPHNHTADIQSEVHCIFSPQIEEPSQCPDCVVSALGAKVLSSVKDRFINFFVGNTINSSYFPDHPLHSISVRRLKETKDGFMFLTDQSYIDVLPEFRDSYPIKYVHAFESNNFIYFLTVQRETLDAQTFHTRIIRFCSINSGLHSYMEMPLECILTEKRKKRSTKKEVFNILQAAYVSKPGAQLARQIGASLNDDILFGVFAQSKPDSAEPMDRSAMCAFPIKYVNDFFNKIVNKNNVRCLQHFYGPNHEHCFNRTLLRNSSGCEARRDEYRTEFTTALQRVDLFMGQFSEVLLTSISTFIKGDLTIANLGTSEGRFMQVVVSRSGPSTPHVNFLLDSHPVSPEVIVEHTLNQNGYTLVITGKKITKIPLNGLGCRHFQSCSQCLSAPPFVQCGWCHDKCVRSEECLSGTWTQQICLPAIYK
T2 sequence (P08581 with tags, fused parts or gaps limits assumed): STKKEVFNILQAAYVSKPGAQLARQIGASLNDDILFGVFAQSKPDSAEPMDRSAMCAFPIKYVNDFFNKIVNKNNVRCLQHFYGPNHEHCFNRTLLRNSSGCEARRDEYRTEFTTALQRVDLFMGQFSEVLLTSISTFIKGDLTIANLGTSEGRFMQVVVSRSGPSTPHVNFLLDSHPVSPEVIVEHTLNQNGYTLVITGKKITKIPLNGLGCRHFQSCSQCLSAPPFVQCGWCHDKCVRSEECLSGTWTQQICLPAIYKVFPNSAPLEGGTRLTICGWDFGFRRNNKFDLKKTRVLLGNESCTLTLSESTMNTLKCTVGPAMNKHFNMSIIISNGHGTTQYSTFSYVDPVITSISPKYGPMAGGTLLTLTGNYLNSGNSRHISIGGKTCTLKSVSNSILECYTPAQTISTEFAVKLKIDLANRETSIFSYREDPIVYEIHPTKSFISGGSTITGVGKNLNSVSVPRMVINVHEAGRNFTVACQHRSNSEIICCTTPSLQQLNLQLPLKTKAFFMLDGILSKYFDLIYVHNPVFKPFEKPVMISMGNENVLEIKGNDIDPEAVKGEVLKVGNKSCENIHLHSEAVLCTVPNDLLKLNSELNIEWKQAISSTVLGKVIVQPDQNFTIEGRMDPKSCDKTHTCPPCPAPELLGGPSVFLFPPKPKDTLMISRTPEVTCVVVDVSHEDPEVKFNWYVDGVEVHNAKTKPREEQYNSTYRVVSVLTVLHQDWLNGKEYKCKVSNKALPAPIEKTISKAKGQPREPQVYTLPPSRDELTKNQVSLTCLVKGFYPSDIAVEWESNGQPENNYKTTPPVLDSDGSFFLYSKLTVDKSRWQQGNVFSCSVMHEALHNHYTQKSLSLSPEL
T2 sequence (P08581 25-307 limits assumed): as the sequence (P08581 25-307) above

B1: PC1: phage-displayed anti-c-Met scFv, phage clone 1 (protein)
scFv: MAQVQLQQSGPGLVKPSQTLSLTCDISGDSVSSNSAAWNWIRQSPSRGLEWLGRTYYRSRWYNEYAVSVRGRISINAETSKNQFSLQLNSVTPEDTAIYYCARAGFCSGGNCYPGSEDAFDLWGQGTMVTVGGGGSGGGGSGGGGSDVVMTQSPPSLSVSVGDRVTITCRASQDITNDLNWYQQKPGKAPQLLIYHASELETGVPSRFSGSGFGTDFTLTISSLQPADIATYYCQQYDDLPLTFGGGTKVEIKR
modifications: left off: large carriers
Inhibition of HGF binding to H1993 cells [1]: more than 90%
c-Met binding affinity in comparative ELISA (c-Met-Fc protein): stronger c-Met binding affinity than either PC20 or PC21
Binding to cellular c-Met on 293T cells [2]: higher than that of PC20 and PC21

B2: S21: soluble anti-c-Met scFv corresponding to phage clone PC21; VH/VL sequences in Table 1 (protein)
scFv: MAEVQLVESGPGLVKPSGTLSLKCDASAISMDSNYWWSWLRQPPGKGLEWIGEISHSGSTDYNPSLKSRATISIDKSKKQFFLRLKSVTAADTAVYYCAGLLSPLDAFDEWGQGTMVTVGGGGSGGGGSGGGGSDIQMTQSPSSLSASVGDRVTITCRASQRVATYLNWYQQKPGKAPNLLIYEASSLQSGVPSRFSGRRSGTDFTLTISSLQPEDFATYYCQQSYNTPYTFGQGTRLEIKR
modifications: left off: small tags and cut ends
Kd (c-Met932-Fc protein; purified scFv 5 to 200 nM, c-MetF932-Fc coupled to CM5 chip, Kd calculated by BIAevaluation software): 14.9 nM
Koff (c-Met932-Fc protein; [3]): 0.00389 s⁻¹
Kon (c-Met932-Fc protein; [3]): 261000 M⁻¹ s⁻¹
Inhibition of binding activity of HGF to c-Met (c-MetF932-Fc protein): only slightly inhibited
Binding to c-Met567-Fc compared to c-Met932-Fc (c-Met567-Fc protein): dramatically decreased
